# B1: in vitro–translated 35S-labeled ORP1L (full length) (natural protein, human, UniProt Q9BXW6-1 1-950, looked up)
# chain: MNTEAEQQLLHHARNGNAEEVRQLLETMARNEVIADINCKGRSKSNLGWTPLHLACYFGHRQVVQDLLKAGAEVNVLNDMGDTPLHRAAFTGRKELVMLLLEYNADTTIVNGSGQTAKEVTHAEEIRSMLEAVERTQQRKLEELLLAAAREGKTTELTALLNRPNPPDVNCSDQLGNTPLHCAAYRAHKQCALKLLRSGADPNLKNKNDQKPLDLAQGAEMKHILVGNKVIYKALKRYEGPLWKSSRFFGWRLFWVVLEHGVLSWYRKQPDAVHNIYRQGCKHLTQAVCTVKSTDSCLFFIKCFDDTIHGFRVPKNSLQQSREDWLEAIEEHSAYSTHYCSQDQLTDEEEEDTVSAADLKKSLEKAQSCQQRLDREISNFLKMIKECDMAKEMLPSFLQKVEVVSEASRETCVALTDCLNLFTKQEGVRNFKLEQEQEKNKILSEALETLATEHHELEQSLVKGSPPASILSEDEFYDALSDSESERSLSRLEAVTARSFEEEGEHLGSRKHRMSEEKDCGGGDALSNGIKKHRTSLPSPMFSRNDFSIWSILRKCIGMELSKITMPVIFNEPLSFLQRLTEYMEHTYLIHKASSLSDPVERMQCVAAFAVSAVASQWERTGKPFNPLLGETYELVRDDLGFRLISEQVSHHPPISAFHAEGLNNDFIFHGSIYPKLKFWGKSVEAEPKGTITLELLEHNEAYTWTNPTCCVHNIIVGKLWIEQYGNVEIINHKTGDKCVLNFKPCGLFGKELHKVEGYIQDKSKKKLCALYGKWTECLYSVDPATFDAYKKNDKKNTEEKKNSKQMSTSEELDEMPVPDSESVFIIPGSVLLWRIAPRPPNSAQMYNFTSFAMVLNEVDKDMESVIPKTDCRLRPDIRAMENGEIDQASEEKKRLEEKQRAARKNRSKSEEDWKTRWFHQGPNPYNGAQDWIYSGSYWDRNYFNLPDIY
# modifications: 35S-labeled
# Target: GST–Rab7 (wild type, loaded with GTP or GTPγS) (UniProt P51149 1-207)
# Experiment: pull-down
# Sequence of GST–Rab7 (wild type, loaded with GTP or GTPγS) (P51149 whole entry): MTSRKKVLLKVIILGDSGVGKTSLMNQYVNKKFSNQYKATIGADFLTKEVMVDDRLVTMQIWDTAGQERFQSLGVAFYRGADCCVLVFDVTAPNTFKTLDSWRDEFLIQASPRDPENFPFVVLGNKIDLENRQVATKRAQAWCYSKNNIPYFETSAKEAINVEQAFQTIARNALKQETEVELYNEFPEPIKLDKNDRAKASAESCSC
binder,measurement,value
B1,fold increase of binding in the presence of m9,~4 fold
